Laboratory results from the supplement of paper PMC10567573.

B1: ACBD3 (parent)
chain: YVASHKIEKEEQEKKRKEEEERRR
B2: ATL3 (parent)
chain: FSFRYQQELEEEIKELYENFCKHN

Variants of: B1
Assay: protein stability index of a GFP-peptide fusion (GPS, HEK-293T) (PSI 1-6); higher = more stable
Details: c terminus: a fixed tail appended
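Also: lentivirally expressed fusions sorted by FACS into six bins by GFP to DsRed ratio, PSI derived from sequencing read proportions per bin multiplied by bin number.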

Question: With YVASHKIEKEEQEKKRKEEEERRY [R24Y] as the variant, how does the protein stability index read?
Answer: 2.42

Question: Which protein stability index does the source give for YVASHKIEKEEQEKKRKEEEERRN [R24N] here?
Answer: 3.67

Question: For YVASHKIEKEEQEKKRKEEEERRV [R24V], which protein stability index is on record?
Answer: 3.46

Question: With YVASHKIEKEEQEKKRKEEEERRW [R24W] as the variant, how does the protein stability index read?
Answer: 2.63

Question: For YVASHKIEKEEQEKKRKEEEERRA [R24A], which protein stability index is on record?
Answer: 2.94

Question: For YVASHKIEKEEQEKKRKEEEERRL [R24L], which protein stability index is on record?
Answer: 2.75

Question: For YVASHKIEKEEQEKKRKEEEERRK [R24K], which protein stability index is on record?
Answer: 2.65

Question: With YVASHKIEKEEQEKKRKEEEERRC [R24C] as the variant, how does the protein stability index read?
Answer: 2.83

Question: For YVASHKIEKEEQEKKRKEEEERRI [R24I], which protein stability index is on record?
Answer: 2.52

Question: With YVASHKIEKEEQEKKRKEEEERRD [R24D] as the variant, how does the protein stability index read?
Answer: 3.35

Question: Which protein stability index does the source give for YVASHKIEKEEQEKKRKEEEERRT [R24T] here?
Answer: 2.27

Question: With YVASHKIEKEEQEKKRKEEEERRG [R24G] as the variant, how does the protein stability index read?
Answer: 2.54

Question: With YVASHKIEKEEQEKKRKEEEERRQ [R24Q] as the variant, how does the protein stability index read?
Answer: 3.12

Question: With YVASHKIEKEEQEKKRKEEEERRF [R24F] as the variant, how does the protein stability index read?
Answer: 2.85

Question: For YVASHKIEKEEQEKKRKEEEERRE [R24E], which protein stability index is on record?
Answer: 2.19

Question: With YVASHKIEKEEQEKKRKEEEERRP [R24P] as the variant, how does the protein stability index read?
Answer: 2.04

Question: With YVASHKIEKEEQEKKRKEEEERRS [R24S] as the variant, how does the protein stability index read?
Answer: 2.7

Question: Which protein stability index does the source give for YVASHKIEKEEQEKKRKEEEERRH [R24H] here?
Answer: 3.01

Question: Which protein stability index does the source give for YVASHKIEKEEQEKKRKEEEERRM [R24M] here?
Answer: 2.65

Question: Which protein stability index does the source give for YVASHKIEKEEQEKKRKEEEERSR [R23S] here?
Answer: 2.47

Question: For YVASHKIEKEEQEKKRKEEEERMR [R23M], which protein stability index is on record?
Answer: 2.24

Question: Which protein stability index does the source give for YVASHKIEKEEQEKKRKEEEERNR [R23N] here?
Answer: 2.74

Question: Which protein stability index does the source give for YVASHKIEKEEQEKKRKEEEERIR [R23I] here?
Answer: 2.65

Question: For YVASHKIEKEEQEKKRKEEEERTR [R23T], which protein stability index is on record?
Answer: 3.43

Question: With YVASHKIEKEEQEKKRKEEEERWR [R23W] as the variant, how does the protein stability index read?
Answer: 2.02

Question: Which protein stability index does the source give for YVASHKIEKEEQEKKRKEEEERHR [R23H] here?
Answer: 2.29

Question: Which protein stability index does the source give for YVASHKIEKEEQEKKRKEEEERKR [R23K] here?
Answer: 2.74

Question: Which protein stability index does the source give for YVASHKIEKEEQEKKRKEEEERYR [R23Y] here?
Answer: 2.64

Question: For YVASHKIEKEEQEKKRKEEEERPR [R23P], which protein stability index is on record?
Answer: 2.46

Question: For YVASHKIEKEEQEKKRKEEEERLR [R23L], which protein stability index is on record?
Answer: 2.7

Question: With YVASHKIEKEEQEKKRKEEEERQR [R23Q] as the variant, how does the protein stability index read?
Answer: 2.71

Question: Which protein stability index does the source give for YVASHKIEKEEQEKKRKEEEERVR [R23V] here?
Answer: 2.65

Variants of: B2
Assay: as above
Details: c terminus: a fixed tail appended

Question: For FSQRYQQELEEEIKELYENFCKHN [F3Q], which protein stability index is on record?
Answer: 4.39

Question: With FSWRYQQELEEEIKELYENFCKHN [F3W] as the variant, how does the protein stability index read?
Answer: 2.82

Question: With FSPRYQQELEEEIKELYENFCKHN [F3P] as the variant, how does the protein stability index read?
Answer: 3.79

Question: Which protein stability index does the source give for FSNRYQQELEEEIKELYENFCKHN [F3N] here?
Answer: 2.85

Question: With FSRRYQQELEEEIKELYENFCKHN [F3R] as the variant, how does the protein stability index read?
Answer: 2.83

Question: With FSCRYQQELEEEIKELYENFCKHN [F3C] as the variant, how does the protein stability index read?
Answer: 2.59

Question: For FSKRYQQELEEEIKELYENFCKHN [F3K], which protein stability index is on record?
Answer: 2.09

Question: Which protein stability index does the source give for FSYRYQQELEEEIKELYENFCKHN [F3Y] here?
Answer: 2.01

Question: With FSMRYQQELEEEIKELYENFCKHN [F3M] as the variant, how does the protein stability index read?
Answer: 2.96

Question: Which protein stability index does the source give for FSHRYQQELEEEIKELYENFCKHN [F3H] here?
Answer: 3.23

Question: For FSSRYQQELEEEIKELYENFCKHN [F3S], which protein stability index is on record?
Answer: 2.79

Question: For FSGRYQQELEEEIKELYENFCKHN [F3G], which protein stability index is on record?
Answer: 3.15

Question: For FSERYQQELEEEIKELYENFCKHN [F3E], which protein stability index is on record?
Answer: 3.04

Question: For FSTRYQQELEEEIKELYENFCKHN [F3T], which protein stability index is on record?
Answer: 3.23

Question: Which protein stability index does the source give for FSLRYQQELEEEIKELYENFCKHN [F3L] here?
Answer: 2.7

Question: For FSARYQQELEEEIKELYENFCKHN [F3A], which protein stability index is on record?
Answer: 2.93

Question: Which protein stability index does the source give for FSVRYQQELEEEIKELYENFCKHN [F3V] here?
Answer: 2.51

Question: For FSDRYQQELEEEIKELYENFCKHN [F3D], which protein stability index is on record?
Answer: 3.14

Question: For FSIRYQQELEEEIKELYENFCKHN [F3I], which protein stability index is on record?
Answer: 2.52

Question: For FSFTYQQELEEEIKELYENFCKHN [R4T], which protein stability index is on record?
Answer: 2.02

Question: Which protein stability index does the source give for FSFLYQQELEEEIKELYENFCKHN [R4L] here?
Answer: 2.09

Question: With FSFHYQQELEEEIKELYENFCKHN [R4H] as the variant, how does the protein stability index read?
Answer: 2.9

Question: With FSFKYQQELEEEIKELYENFCKHN [R4K] as the variant, how does the protein stability index read?
Answer: 2.33

Question: With FSFYYQQELEEEIKELYENFCKHN [R4Y] as the variant, how does the protein stability index read?
Answer: 2.11

Question: With FSFAYQQELEEEIKELYENFCKHN [R4A] as the variant, how does the protein stability index read?
Answer: 2.05

Question: For FSFIYQQELEEEIKELYENFCKHN [R4I], which protein stability index is on record?
Answer: 1.87

Question: For FSFVYQQELEEEIKELYENFCKHN [R4V], which protein stability index is on record?
Answer: 2.36

Question: With FSFSYQQELEEEIKELYENFCKHN [R4S] as the variant, how does the protein stability index read?
Answer: 2.1

Question: For FSFDYQQELEEEIKELYENFCKHN [R4D], which protein stability index is on record?
Answer: 3.13

Question: Which protein stability index does the source give for FSFQYQQELEEEIKELYENFCKHN [R4Q] here?
Answer: 2.82

Question: For FSFEYQQELEEEIKELYENFCKHN [R4E], which protein stability index is on record?
Answer: 2.63

Question: For FSFPYQQELEEEIKELYENFCKHN [R4P], which protein stability index is on record?
Answer: 2.87

Question: With FSFMYQQELEEEIKELYENFCKHN [R4M] as the variant, how does the protein stability index read?
Answer: 1.96

Question: With FSFCYQQELEEEIKELYENFCKHN [R4C] as the variant, how does the protein stability index read?
Answer: 2.23

Question: For FSFGYQQELEEEIKELYENFCKHN [R4G], which protein stability index is on record?
Answer: 2.88

Question: For FSFNYQQELEEEIKELYENFCKHN [R4N], which protein stability index is on record?
Answer: 2.96

Question: With FSFFYQQELEEEIKELYENFCKHN [R4F] as the variant, how does the protein stability index read?
Answer: 2.45

Question: For FSFWYQQELEEEIKELYENFCKHN [R4W], which protein stability index is on record?
Answer: 1.61

Question: With FSFRYQQNLEEEIKELYENFCKHN [E8N] as the variant, how does the protein stability index read?
Answer: 2.44

Question: With FSFRYQQWLEEEIKELYENFCKHN [E8W] as the variant, how does the protein stability index read?
Answer: 2.09

Question: For FSFRYQQHLEEEIKELYENFCKHN [E8H], which protein stability index is on record?
Answer: 2.27

Question: With FSFRYQQFLEEEIKELYENFCKHN [E8F] as the variant, how does the protein stability index read?
Answer: 1.89

Question: Which protein stability index does the source give for FSFRYQQLLEEEIKELYENFCKHN [E8L] here?
Answer: 2.1

Question: With FSFRYQQKLEEEIKELYENFCKHN [E8K] as the variant, how does the protein stability index read?
Answer: 1.69

Question: For FSFRYQQTLEEEIKELYENFCKHN [E8T], which protein stability index is on record?
Answer: 1.79

Question: With FSFRYQQYLEEEIKELYENFCKHN [E8Y] as the variant, how does the protein stability index read?
Answer: 1.79

Question: With FSFRYQQQLEEEIKELYENFCKHN [E8Q] as the variant, how does the protein stability index read?
Answer: 2.02

Question: Which protein stability index does the source give for FSFRYQQILEEEIKELYENFCKHN [E8I] here?
Answer: 1.72

Question: Which protein stability index does the source give for FSFRYQQGLEEEIKELYENFCKHN [E8G] here?
Answer: 2.68

Question: For FSFRYQQRLEEEIKELYENFCKHN [E8R], which protein stability index is on record?
Answer: 1.65

Question: For FSFRYQQPLEEEIKELYENFCKHN [E8P], which protein stability index is on record?
Answer: 2.02

Question: For FSFRYQQMLEEEIKELYENFCKHN [E8M], which protein stability index is on record?
Answer: 1.97

Question: With FSFRYQQVLEEEIKELYENFCKHN [E8V] as the variant, how does the protein stability index read?
Answer: 1.46

Question: Which protein stability index does the source give for FSFRYQQALEEEIKELYENFCKHN [E8A] here?
Answer: 1.91

Question: For FSFRYQQCLEEEIKELYENFCKHN [E8C], which protein stability index is on record?
Answer: 2.11

Question: Which protein stability index does the source give for FSFRYQQSLEEEIKELYENFCKHN [E8S] here?
Answer: 1.89

Question: Which protein stability index does the source give for FSFRIQQELEEEIKELYENFCKHN [Y5I] here?
Answer: 2.77

Question: With FSFRFQQELEEEIKELYENFCKHN [Y5F] as the variant, how does the protein stability index read?
Answer: 2.5

Question: With FSFRCQQELEEEIKELYENFCKHN [Y5C] as the variant, how does the protein stability index read?
Answer: 2.44

Question: For FSFREQQELEEEIKELYENFCKHN [Y5E], which protein stability index is on record?
Answer: 3.07

Question: For FSFRWQQELEEEIKELYENFCKHN [Y5W], which protein stability index is on record?
Answer: 2.21

Question: With FSFRNQQELEEEIKELYENFCKHN [Y5N] as the variant, how does the protein stability index read?
Answer: 3.29
